Experimental data as given in PMC6540616.

Experiments:
Experiment in all cases: DHFR protein complementation assay (yeast growth)
Details in all cases: MTX-containing media relative to MTX-free media; read off a plot
[1] = molecular target: caskin1 SAM fused to DHFR F3 (UniProt Q6P9K8)
[2] = molecular target: PTPσ full-length (FL) fused to DHFR F1-2, wild type
[3] = molecular target: trio IgPSK fused to DHFR F3

UniProt Q6P9K8, sequence (Q6P9K8 344-636): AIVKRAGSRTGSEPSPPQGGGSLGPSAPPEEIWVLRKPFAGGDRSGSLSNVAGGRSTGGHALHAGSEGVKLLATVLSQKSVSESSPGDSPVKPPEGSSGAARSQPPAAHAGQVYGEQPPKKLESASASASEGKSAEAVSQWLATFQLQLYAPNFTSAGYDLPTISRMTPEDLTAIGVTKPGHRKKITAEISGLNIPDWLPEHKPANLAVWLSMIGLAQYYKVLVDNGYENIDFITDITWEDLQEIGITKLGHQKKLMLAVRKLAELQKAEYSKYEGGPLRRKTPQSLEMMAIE

“PTPσ full-length (FL) fused to DHFR F1-2, wild type EGFID” was tested, and the other: interaction score [1] was -0.11.

“PTPσ full-length (FL) fused to DHFR F1-2, wild type QFG” was tested, and the other: interaction score [2] was 0.8.

“PTPσ intracellular region (ICR) fused to DHFR F1-2, wild type EGFID” showed an other: interaction score [3] of 0.93.
